From article doi:10.1101/2022.04.07.487047 (bioRxiv, 2022)
Residue numbers refer to the chain shown, from its start. Numbers in names are those of the source. Values belong to the binder of their own block, whether it stands above or below them.

Target: T1, CydD, subunit of the heterodimeric ABC transporter CydDC (Escherichia coli, UniProt P29018 1-588)
T1 sequence: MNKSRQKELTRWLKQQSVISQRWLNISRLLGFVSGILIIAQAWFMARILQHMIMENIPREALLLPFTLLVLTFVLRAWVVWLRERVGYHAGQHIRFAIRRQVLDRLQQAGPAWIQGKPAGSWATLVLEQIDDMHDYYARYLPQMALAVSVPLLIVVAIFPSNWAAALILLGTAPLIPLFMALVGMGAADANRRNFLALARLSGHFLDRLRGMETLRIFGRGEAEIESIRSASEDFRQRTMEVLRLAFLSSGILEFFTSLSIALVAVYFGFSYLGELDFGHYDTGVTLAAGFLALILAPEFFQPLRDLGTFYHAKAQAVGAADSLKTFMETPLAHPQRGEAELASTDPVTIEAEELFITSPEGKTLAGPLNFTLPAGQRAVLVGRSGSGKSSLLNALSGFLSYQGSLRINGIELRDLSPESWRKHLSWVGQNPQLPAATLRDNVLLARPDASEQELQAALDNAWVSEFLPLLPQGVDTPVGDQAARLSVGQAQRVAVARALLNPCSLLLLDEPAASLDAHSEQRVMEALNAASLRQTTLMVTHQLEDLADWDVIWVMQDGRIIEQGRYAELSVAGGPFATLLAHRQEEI
Test: cryo-EM structure

binding result: binds
B1: CydC, subunit of the heterodimeric ABC transporter CydDC (wild type) (natural protein, Escherichia coli)
chain: MRALLPYLALYKRHKWMLSLGIVLAIVTLLASIGLLTLSGWFLSASAVAGVAGLYSFNYMLPAAGVRGAAITRTAGRYFERLVSHDATFRVLQHLRIYTFSKLLPLSPAGLARYRQGELLNRVVADVDTLDHLYLRVISPLVGAFVVIMVVTIGLSFLDFTLAFTLGGIMLLTLFLMPPLFYRAGKSTGQNLTHLRGQYRQQLTAWLQGQAELTIFGASDRYRTQLENTEIQWLEAQRRQSELTALSQAIMLLIGALAVILMLWMASGGVGGNAQPGALIALFVFCALAAFEALAPVTGAFQHLGQVIASAVRISDLTDQKPEVTFPDTQTRVADRVSLTLRDVQFTYPEQSQQALKGISLQVNAGEHIAILGRTGCGKSTLLQQLTRAWDPQQGEILLNDSPIASLNEAALRQTISVVPQRVHLFSATLRDNLLLASPGSSDEALSEILRRVGLEKLLEDAGLNSWLGEGGRQLSGGELRRLAIARALLHDAPLVLLDEPTEGLDATTESQILELLAEMMREKTVLMVTHRLRGLSRFQQIIVMDNGQIIEQGTHAELLARQGRYYQFKQGL

binding result: binds
B2: CydC E500Q (Walker B glutamate to glutamine mutant), subunit of CydDC^E500Q (natural protein, Escherichia coli)
chain: B1 chain with E500Q

binding result: binds
B3: CydC H85A (histidine to alanine exchange at position 85), subunit of CydDC^H85A (natural protein, Escherichia coli)
chain: B1 chain with H85A
